Measured values taken from PMC1540706 (2006).
Values belong to the binder of their own block, whether it stands above or below them.

B2: human β2-appendage (700–937) used for ITC (domain or fragment)
chain: IGMAPGGYVAPKAVWLPAVKAKGLEISGTFTHRQGHIYMEMNFTNKALQHMTDFAIQFNKNSFGVIPSTPLAIHTPLMPNQSIDVSLPLNTLGPVMKMEPLNNLQVAVKNNIDVFYFSCLIPLNVLFVEDGKMERQVFLATWKDIPNENELQFQIKECHLNADTVSSKLQNNNVYTIAKRNVEGQDMLYQSLKLTNGIWILAELRIQPGNPNYTLSLKCRAPEVSQYIYQVYDSILKN
B3: human β2-appendage (700–937), top site mutant used for ITC (domain or fragment)
chain: IGMAPGGYVAPKAVWLPAVKAKGLEISGTFTHRQGHIYMEMNFTNKALQHMTDFAIQFNKNSFGVIPSTPLAIHTPLMPNQSIDVSLPLNTLGPVMKMEPLNNLQVAVKNNIDVFYFSCLIPLNVLFVEDGKMERQVFLATWKDIPNENELQFQIKECHLNADTVSSKLQNNNVYTIAKRNVEGQDMLVQSLKLTNGIWILAELRIQPGNPNYTLSLKCRAPEVSQYIYQVYDSILKN
B4: human β2-appendage (700–937) R879A used for ITC (domain or fragment)
chain: IGMAPGGYVAPKAVWLPAVKAKGLEISGTFTHRQGHIYMEMNFTNKALQHMTDFAIQFNKNSFGVIPSTPLAIHTPLMPNQSIDVSLPLNTLGPVMKMEPLNNLQVAVKNNIDVFYFSCLIPLNVLFVEDGKMERQVFLATWKDIPNENELQFQIKECHLNADTVSSKLQNNNVYTIAKANVEGQDMLYQSLKLTNGIWILAELRIQPGNPNYTLSLKCRAPEVSQYIYQVYDSILKN

Key:
Assay in all cases: ITC
[1] = biological target: B3
[2] = biological target: B2
Epsin P1 = biological target: Epsin P1
Eps15 P-long peptide = Eps15 P-long peptide (UniProt P42566)
ARH peptide = ARH peptide (UniProt Q5SW96)
Epsin P4 = biological target: Epsin P4
epsinR peptide = epsinR peptide (UniProt Q14677)
[3] = biological target: B4
[4] = biological target: T1, human β2-appendage (700–937), side site mutant used for ITC (human, UniProt P63010 700-937)
T1 chain: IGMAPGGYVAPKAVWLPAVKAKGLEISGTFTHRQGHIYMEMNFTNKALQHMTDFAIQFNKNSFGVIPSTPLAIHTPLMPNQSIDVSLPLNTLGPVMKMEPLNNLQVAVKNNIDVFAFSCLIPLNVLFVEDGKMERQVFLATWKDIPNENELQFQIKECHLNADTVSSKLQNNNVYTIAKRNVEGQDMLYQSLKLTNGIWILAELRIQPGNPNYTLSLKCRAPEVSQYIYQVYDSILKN

[5] = biological target: AP2 α-appendage appendage (Mus musculus, UniProt P17427)
Sequence of AP2 α-appendage appendage (P17427 701-938): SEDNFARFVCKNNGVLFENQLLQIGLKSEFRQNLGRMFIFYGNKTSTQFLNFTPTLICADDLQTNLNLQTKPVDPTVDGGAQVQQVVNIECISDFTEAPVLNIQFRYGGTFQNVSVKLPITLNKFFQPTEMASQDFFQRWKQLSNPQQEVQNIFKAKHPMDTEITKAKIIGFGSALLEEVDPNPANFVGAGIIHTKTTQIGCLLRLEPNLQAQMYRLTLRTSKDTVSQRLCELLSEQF

Binder: B2
Kd (Epsin P1): 131 µM
Kd (Eps15 P-long peptide): 12 µM
Kd (ARH peptide): 4.7 µM
Kd (Epsin P4): 160 µM

Binder: B3
Kd (epsinR peptide): 77 µM

Binder: B4
Kd (ARH peptide): 5.5 µM

B5: 6× His human Eps15-MD (530–791) (domain or fragment)
chain: STSSSETANLNEHVEGQSNLESEPIHQESPARSSPELLPSGVTDENEVTTAVTEKVCSELDNNRHSKEEDPFNVDSSSLTGPVADTNLDFFQSDPFVGSDPFKDDPFGKIDPFGGDPFKGSDPFASDCFFRQSTDPFATSSTDPFSAANNSSITSVETLKHNDPFAPGGTVVAASDSATDPFASVFGNESFGGGFADFSTLSKVNNEDPFRSATSSSVSNVVITKNVFEETSVKSEDEPPALPPKIGTPTRPCPLPPGKRSI
Kd [1]: 11 µM
Kd [2]: 18 µM

Second part, the binder after the results:

Kd [1]: 59 µM
Binder: SFGDGFADFSTL [Eps15 P-short peptide]

Kd [2]: 35 µM
B1: Epsin1-MD (protein)
chain: TGGKEESSLMDLADVFTTPAPPQASDPWGGPASVPTAVPVAAAASDPWGAPAVPPAADPWGGAAPTPASGDPWRPAAPTGPSVDPWGGTPAPAAGEGPTSDPWGSADGGAPVSGPPSSDPWAPAPAFSDPWGGSPAKPSSNGTAVGGFDTEPD

Kd [3]: 0.17 µM
Kd [4]: 1.7 µM
Binder: DDDIVFEDFARQRLKGMKDD [β-arrestin P-long peptide]

Kd [5]: 2.5 µM
Binder: SFFEDNFVPEIS [amphiphysin DNF 12mer peptide]
